The target of the test is T1, human GRF receptor (human, UniProt Q02643 23-423).
T1 sequence (looked up): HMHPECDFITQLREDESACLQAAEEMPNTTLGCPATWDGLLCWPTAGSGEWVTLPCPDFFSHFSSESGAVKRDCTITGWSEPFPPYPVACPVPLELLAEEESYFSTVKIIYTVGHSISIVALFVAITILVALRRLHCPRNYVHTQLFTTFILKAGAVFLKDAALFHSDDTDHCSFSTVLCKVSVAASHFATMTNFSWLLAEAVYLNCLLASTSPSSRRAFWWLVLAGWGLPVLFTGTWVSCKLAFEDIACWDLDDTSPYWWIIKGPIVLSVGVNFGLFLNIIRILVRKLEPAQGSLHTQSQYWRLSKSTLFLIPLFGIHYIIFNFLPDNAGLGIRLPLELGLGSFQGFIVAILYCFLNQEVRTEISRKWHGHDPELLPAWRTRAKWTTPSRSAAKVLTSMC
Nature of the test: cell-based or functional assay.

Where no end group is shown, it is not given here.

B1: Trans-3-hexenoyl-YADAIFTDSYRKVLAQLSARQDILAR-NH2 (SEQ ID NO: 45) (peptide)
peptide: YADAIFTDSYRKVLAQLSARQDILAR
HELM: PEPTIDE1{[CC/C=C/CC(=O)[*:2]].Y.A.D.A.I.F.T.D.S.Y.R.K.V.L.A.Q.L.S.A.R.Q.D.I.L.A.R.[am]}$$$$V2.0
SMILES: CC/C=C/CC(=O)N[C@@H](Cc1ccc(O)cc1)C(=O)N[C@@H](C)C(=O)N[C@@H](CC(=O)O)C(=O)N[C@@H](C)C(=O)N[C@H](C(=O)N[C@@H](Cc1ccccc1)C(=O)N[C@H](C(=O)N[C@@H](CC(=O)O)C(=O)N[C@@H](CO)C(=O)N[C@@H](Cc1ccc(O)cc1)C(=O)N[C@@H](CCCNC(=N)N)C(=O)N[C@@H](CCCCN)C(=O)N[C@H](C(=O)N[C@@H](CC(C)C)C(=O)N[C@@H](C)C(=O)N[C@@H](CCC(N)=O)C(=O)N[C@@H](CC(C)C)C(=O)N[C@@H](CO)C(=O)N[C@@H](C)C(=O)N[C@@H](CCCNC(=N)N)C(=O)N[C@@H](CCC(N)=O)C(=O)N[C@@H](CC(=O)O)C(=O)N[C@H](C(=O)N[C@@H](CC(C)C)C(=O)N[C@@H](C)C(=O)N[C@@H](CCCNC(=N)N)C(N)=O)[C@@H](C)CC)C(C)C)[C@@H](C)O)[C@@H](C)CC
On to B1, for which the “EC50 as assessed by alkaline phosphatase (AP) induction” value (from here on “EC50 as assessed”) was determined as 7.55 nM.

In the case of YGDAIFTDSYRKVLAQLKARQDILARAARAAR-NH2 [YGDAIFTDSYRKVLAQLKARQDILARAARAAR-NH2 (SEQ ID NO: 34)], the “EC50 as assessed” value was 0.2 nM.

B2: Y-a-DAIFTDSYRKVLAQLKARQDILS-r-NH2 (SEQ ID NO: 21) (peptide)
peptide: YXDAIFTDSYRKVLAQLKARQDILSX
HELM: PEPTIDE1{Y.[dA].D.A.I.F.T.D.S.Y.R.K.V.L.A.Q.L.K.A.R.Q.D.I.L.S.[dR].[am]}$$$$V2.0; N-terminus assumed
SMILES: CC[C@H](C)[C@H](NC(=O)[C@H](C)NC(=O)[C@H](CC(=O)O)NC(=O)[C@@H](C)NC(=O)[C@@H](N)Cc1ccc(O)cc1)C(=O)N[C@@H](Cc1ccccc1)C(=O)N[C@H](C(=O)N[C@@H](CC(=O)O)C(=O)N[C@@H](CO)C(=O)N[C@@H](Cc1ccc(O)cc1)C(=O)N[C@@H](CCCNC(=N)N)C(=O)N[C@@H](CCCCN)C(=O)N[C@H](C(=O)N[C@@H](CC(C)C)C(=O)N[C@@H](C)C(=O)N[C@@H](CCC(N)=O)C(=O)N[C@@H](CC(C)C)C(=O)N[C@@H](CCCCN)C(=O)N[C@@H](C)C(=O)N[C@@H](CCCNC(=N)N)C(=O)N[C@@H](CCC(N)=O)C(=O)N[C@@H](CC(=O)O)C(=O)N[C@H](C(=O)N[C@@H](CC(C)C)C(=O)N[C@@H](CO)C(=O)N[C@H](CCCNC(=N)N)C(N)=O)[C@@H](C)CC)C(C)C)[C@@H](C)O
Take B2: the “EC50 as assessed” value came out at 2.47 nM.

For YLDAIFTDSYRKVLAQLKARQDILARAARAAR-NH2 [YLDAIFTDSYRKVLAQLKARQDILARAARAAR-NH2 (SEQ ID NO: 35)], the “EC50 as assessed” value was 2.52 nM.

B3: Trans-3-hexenoyl-YADAIFTDSYRKVLAQLSARQDILS-r-NH2 (SEQ ID NO: 46) (peptide)
peptide: YADAIFTDSYRKVLAQLSARQDILSX
HELM: PEPTIDE1{[CC/C=C/CC(=O)[*:2]].Y.A.D.A.I.F.T.D.S.Y.R.K.V.L.A.Q.L.S.A.R.Q.D.I.L.S.[dR].[am]}$$$$V2.0
SMILES: CC/C=C/CC(=O)N[C@@H](Cc1ccc(O)cc1)C(=O)N[C@@H](C)C(=O)N[C@@H](CC(=O)O)C(=O)N[C@@H](C)C(=O)N[C@H](C(=O)N[C@@H](Cc1ccccc1)C(=O)N[C@H](C(=O)N[C@@H](CC(=O)O)C(=O)N[C@@H](CO)C(=O)N[C@@H](Cc1ccc(O)cc1)C(=O)N[C@@H](CCCNC(=N)N)C(=O)N[C@@H](CCCCN)C(=O)N[C@H](C(=O)N[C@@H](CC(C)C)C(=O)N[C@@H](C)C(=O)N[C@@H](CCC(N)=O)C(=O)N[C@@H](CC(C)C)C(=O)N[C@@H](CO)C(=O)N[C@@H](C)C(=O)N[C@@H](CCCNC(=N)N)C(=O)N[C@@H](CCC(N)=O)C(=O)N[C@@H](CC(=O)O)C(=O)N[C@H](C(=O)N[C@@H](CC(C)C)C(=O)N[C@@H](CO)C(=O)N[C@H](CCCNC(=N)N)C(N)=O)[C@@H](C)CC)C(C)C)[C@@H](C)O)[C@@H](C)CC
On to B3, for which the “EC50 as assessed” value turned out to be 15.1 nM.

YSDAIFTDSYRKVLAQLKARQDILARAARAAR-NH2 [YSDAIFTDSYRKVLAQLKARQDILARAARAAR-NH2 (SEQ ID NO: 33)]: the “EC50 as assessed” value worked out at 0.25 nM.

B4: Trans-3-hexenoyl-YADAIFTDSYRKVLAQLSARQDIMSR-NH2 (SEQ ID NO: 44) (peptide)
peptide: YADAIFTDSYRKVLAQLSARQDIMSR
HELM: PEPTIDE1{[CC/C=C/CC(=O)[*:2]].Y.A.D.A.I.F.T.D.S.Y.R.K.V.L.A.Q.L.S.A.R.Q.D.I.M.S.R.[am]}$$$$V2.0
SMILES: CC/C=C/CC(=O)N[C@@H](Cc1ccc(O)cc1)C(=O)N[C@@H](C)C(=O)N[C@@H](CC(=O)O)C(=O)N[C@@H](C)C(=O)N[C@H](C(=O)N[C@@H](Cc1ccccc1)C(=O)N[C@H](C(=O)N[C@@H](CC(=O)O)C(=O)N[C@@H](CO)C(=O)N[C@@H](Cc1ccc(O)cc1)C(=O)N[C@@H](CCCNC(=N)N)C(=O)N[C@@H](CCCCN)C(=O)N[C@H](C(=O)N[C@@H](CC(C)C)C(=O)N[C@@H](C)C(=O)N[C@@H](CCC(N)=O)C(=O)N[C@@H](CC(C)C)C(=O)N[C@@H](CO)C(=O)N[C@@H](C)C(=O)N[C@@H](CCCNC(=N)N)C(=O)N[C@@H](CCC(N)=O)C(=O)N[C@@H](CC(=O)O)C(=O)N[C@H](C(=O)N[C@@H](CCSC)C(=O)N[C@@H](CO)C(=O)N[C@@H](CCCNC(=N)N)C(N)=O)[C@@H](C)CC)C(C)C)[C@@H](C)O)[C@@H](C)CC
Consider B4, for which the “EC50 as assessed” value was found to be 9.73 nM.

B5: YGDAIFTDSYRKVLAQLKARQDILARAARAAR-HoSer-NH2 (SEQ ID NO: 36) (peptide)
peptide: YGDAIFTDSYRKVLAQLKARQDILARAARAARX
HELM: PEPTIDE1{Y.G.D.A.I.F.T.D.S.Y.R.K.V.L.A.Q.L.K.A.R.Q.D.I.L.A.R.A.A.R.A.A.R.[O=C([C@H](CCO)N[*:1])[*:2]].[am]}$$$$V2.0; N-terminus assumed
SMILES: CC[C@H](C)[C@H](NC(=O)[C@H](C)NC(=O)[C@H](CC(=O)O)NC(=O)CNC(=O)[C@@H](N)Cc1ccc(O)cc1)C(=O)N[C@@H](Cc1ccccc1)C(=O)N[C@H](C(=O)N[C@@H](CC(=O)O)C(=O)N[C@@H](CO)C(=O)N[C@@H](Cc1ccc(O)cc1)C(=O)N[C@@H](CCCNC(=N)N)C(=O)N[C@@H](CCCCN)C(=O)N[C@H](C(=O)N[C@@H](CC(C)C)C(=O)N[C@@H](C)C(=O)N[C@@H](CCC(N)=O)C(=O)N[C@@H](CC(C)C)C(=O)N[C@@H](CCCCN)C(=O)N[C@@H](C)C(=O)N[C@@H](CCCNC(=N)N)C(=O)N[C@@H](CCC(N)=O)C(=O)N[C@@H](CC(=O)O)C(=O)N[C@H](C(=O)N[C@@H](CC(C)C)C(=O)N[C@@H](C)C(=O)N[C@@H](CCCNC(=N)N)C(=O)N[C@@H](C)C(=O)N[C@@H](C)C(=O)N[C@@H](CCCNC(=N)N)C(=O)N[C@@H](C)C(=O)N[C@@H](C)C(=O)N[C@@H](CCCNC(=N)N)C(=O)N[C@@H](CCO)C(N)=O)[C@@H](C)CC)C(C)C)[C@@H](C)O
As to B5, the “EC50 as assessed” value was found to be 0.2 nM.

B6: Y-a-DAIFTDSYRKVLAQLKARQDILARAARAAR-HoSer-NH2 (SEQ ID NO: 37) (peptide)
peptide: YXDAIFTDSYRKVLAQLKARQDILARAARAARX
HELM: PEPTIDE1{Y.[dA].D.A.I.F.T.D.S.Y.R.K.V.L.A.Q.L.K.A.R.Q.D.I.L.A.R.A.A.R.A.A.R.[O=C([C@H](CCO)N[*:1])[*:2]].[am]}$$$$V2.0; N-terminus assumed
SMILES: CC[C@H](C)[C@H](NC(=O)[C@H](C)NC(=O)[C@H](CC(=O)O)NC(=O)[C@@H](C)NC(=O)[C@@H](N)Cc1ccc(O)cc1)C(=O)N[C@@H](Cc1ccccc1)C(=O)N[C@H](C(=O)N[C@@H](CC(=O)O)C(=O)N[C@@H](CO)C(=O)N[C@@H](Cc1ccc(O)cc1)C(=O)N[C@@H](CCCNC(=N)N)C(=O)N[C@@H](CCCCN)C(=O)N[C@H](C(=O)N[C@@H](CC(C)C)C(=O)N[C@@H](C)C(=O)N[C@@H](CCC(N)=O)C(=O)N[C@@H](CC(C)C)C(=O)N[C@@H](CCCCN)C(=O)N[C@@H](C)C(=O)N[C@@H](CCCNC(=N)N)C(=O)N[C@@H](CCC(N)=O)C(=O)N[C@@H](CC(=O)O)C(=O)N[C@H](C(=O)N[C@@H](CC(C)C)C(=O)N[C@@H](C)C(=O)N[C@@H](CCCNC(=N)N)C(=O)N[C@@H](C)C(=O)N[C@@H](C)C(=O)N[C@@H](CCCNC(=N)N)C(=O)N[C@@H](C)C(=O)N[C@@H](C)C(=O)N[C@@H](CCCNC(=N)N)C(=O)N[C@@H](CCO)C(N)=O)[C@@H](C)CC)C(C)C)[C@@H](C)O
Consider B6, for which the “EC50 as assessed” value came to 0.2 nM.

B7: Trans-3-hexenoyl-YADAIFTDSYRKVLAQLKARQDILAR-NH2 (SEQ ID NO: 20) (peptide)
peptide: YADAIFTDSYRKVLAQLKARQDILAR
HELM: PEPTIDE1{[CC/C=C/CC(=O)[*:2]].Y.A.D.A.I.F.T.D.S.Y.R.K.V.L.A.Q.L.K.A.R.Q.D.I.L.A.R.[am]}$$$$V2.0
SMILES: CC/C=C/CC(=O)N[C@@H](Cc1ccc(O)cc1)C(=O)N[C@@H](C)C(=O)N[C@@H](CC(=O)O)C(=O)N[C@@H](C)C(=O)N[C@H](C(=O)N[C@@H](Cc1ccccc1)C(=O)N[C@H](C(=O)N[C@@H](CC(=O)O)C(=O)N[C@@H](CO)C(=O)N[C@@H](Cc1ccc(O)cc1)C(=O)N[C@@H](CCCNC(=N)N)C(=O)N[C@@H](CCCCN)C(=O)N[C@H](C(=O)N[C@@H](CC(C)C)C(=O)N[C@@H](C)C(=O)N[C@@H](CCC(N)=O)C(=O)N[C@@H](CC(C)C)C(=O)N[C@@H](CCCCN)C(=O)N[C@@H](C)C(=O)N[C@@H](CCCNC(=N)N)C(=O)N[C@@H](CCC(N)=O)C(=O)N[C@@H](CC(=O)O)C(=O)N[C@H](C(=O)N[C@@H](CC(C)C)C(=O)N[C@@H](C)C(=O)N[C@@H](CCCNC(=N)N)C(N)=O)[C@@H](C)CC)C(C)C)[C@@H](C)O)[C@@H](C)CC
For the molecule B7, the “EC50 as assessed” value stood at 0.98 nM.
